The text below walks through data of patent US20200339636A1 (CHILDREN S MEDICAL CENTER, published 2020).

B6: sTcdB (TcdB residues 1285-1804), wild type, with C-terminal HA tag (other)
chain: TNIRINLDSNTRSFIVPIITTEYIREKLSYSFYGSGGTYALSLSQYNMGINIELSESDVWIIDVDNVVRDVTIESDKIKKGDLIEGILSTLSIEENKIILNSHEINFSGEVNGSNGFVSLTFSILEGINAIIEVDLLSKSYKLLISGELKILMLNSNHIQQKIDYIGFNSELQKNIPYSFVDSEGKENGFINGSTKEGLFVSELPDVVLISKVYMDDSKPSFGYYSNNLKDVKVITKDNVNILTGYYLKDDIKISLSLTLQDEKTIKLNSVHLDESGVAEILKFMNRKGNTNTSDSLMSFLESMNIKSIFVNFLQSNIKFILDANFIISGTTSIGQFEFICDENDNIQPYFIKFNTLETNYTLYVGNRQNMIVEPNYDLDDSGDISSTVINFSQKYLYGIDSCVNKVVISPNIYTDEINITPVYETNNTYPEVIVLDANYINEKINVNINDLSIRYVWSNDGNDFILMSTSEENKVSQVKIRFVNVFKDKTLANKLSFNFSDKQDVPVSEIILSFTPSYY

Assay [1] concerns the target B6. Nature of the assay: BLI, CRD-Fc with or without Wnt3A. A general note: In BLI a coated tip is dipped into the sample, and binding shifts an interference pattern.
In assay [2] the target is T1, His-tagged CRD2 (CRD of human Frizzled 2, residues 24-156) (human, UniProt Q14332 24-156).
T1 construct: range 24-156
Nature of the assay: pull down by His-CRD2.

The target of assay [3] is T2, FZD2^CRD-Fc (recombinant human, R&D Systems) (human, UniProt Q14332 24-162).
T2 construct: domain: CRD; also called Fc-tagged CRD2; CRD2; not shown: Fc tag of the bought protein
Nature of the assay: BLI, FZD2CRD-Fc (20 µg/ml) on anti-hIgG-Fc biosensor, then 20 µg/ml Wnt3A.

The target in assay [4] is T2, FZD2^CRD-Fc (recombinant human, R&D …). Nature of the assay: BLI (Blitz), FZD2CRD-Fc on anti-hIgG-Fc biosensor; kon error printed 1.69 x 10^3.
The target is the same in assay [5]. Nature of the assay: BLI, FZD2 CRD-Fc on anti-hIgG-Fc biosensor.
Assay [6] shares this target.
For assay [7] the target is unchanged. Nature of the assay: BLI (Blitz), FZD2CRD-Fc on anti-hIgG-Fc biosensor.
For assay [8], the target named is B6. Nature of the assay: pull-down on Protein G beads and BLI, FZD5 CRD-Fc with or without PAM or Wnt3A.
For assay [9], the target named is Recombinant full length TcdB (C. difficile strain VPI 10463), 6xHis-tagged (Clostridium difficile strain VPI 10463, UniProt P18177 1-2366). Nature of the assay: BLI, FZD5 CRD-Fc with or without Wnt3A.

Broadly, the kon is the second-order rate constant of association. For orientation: Kd means the concentration at which binding is half-saturated. The koff is a measure of how fast the partners let go of each other.

Chain of Recombinant full length TcdB (C. difficile strain VPI 10463), 6xHis-tagged (P18177 whole entry): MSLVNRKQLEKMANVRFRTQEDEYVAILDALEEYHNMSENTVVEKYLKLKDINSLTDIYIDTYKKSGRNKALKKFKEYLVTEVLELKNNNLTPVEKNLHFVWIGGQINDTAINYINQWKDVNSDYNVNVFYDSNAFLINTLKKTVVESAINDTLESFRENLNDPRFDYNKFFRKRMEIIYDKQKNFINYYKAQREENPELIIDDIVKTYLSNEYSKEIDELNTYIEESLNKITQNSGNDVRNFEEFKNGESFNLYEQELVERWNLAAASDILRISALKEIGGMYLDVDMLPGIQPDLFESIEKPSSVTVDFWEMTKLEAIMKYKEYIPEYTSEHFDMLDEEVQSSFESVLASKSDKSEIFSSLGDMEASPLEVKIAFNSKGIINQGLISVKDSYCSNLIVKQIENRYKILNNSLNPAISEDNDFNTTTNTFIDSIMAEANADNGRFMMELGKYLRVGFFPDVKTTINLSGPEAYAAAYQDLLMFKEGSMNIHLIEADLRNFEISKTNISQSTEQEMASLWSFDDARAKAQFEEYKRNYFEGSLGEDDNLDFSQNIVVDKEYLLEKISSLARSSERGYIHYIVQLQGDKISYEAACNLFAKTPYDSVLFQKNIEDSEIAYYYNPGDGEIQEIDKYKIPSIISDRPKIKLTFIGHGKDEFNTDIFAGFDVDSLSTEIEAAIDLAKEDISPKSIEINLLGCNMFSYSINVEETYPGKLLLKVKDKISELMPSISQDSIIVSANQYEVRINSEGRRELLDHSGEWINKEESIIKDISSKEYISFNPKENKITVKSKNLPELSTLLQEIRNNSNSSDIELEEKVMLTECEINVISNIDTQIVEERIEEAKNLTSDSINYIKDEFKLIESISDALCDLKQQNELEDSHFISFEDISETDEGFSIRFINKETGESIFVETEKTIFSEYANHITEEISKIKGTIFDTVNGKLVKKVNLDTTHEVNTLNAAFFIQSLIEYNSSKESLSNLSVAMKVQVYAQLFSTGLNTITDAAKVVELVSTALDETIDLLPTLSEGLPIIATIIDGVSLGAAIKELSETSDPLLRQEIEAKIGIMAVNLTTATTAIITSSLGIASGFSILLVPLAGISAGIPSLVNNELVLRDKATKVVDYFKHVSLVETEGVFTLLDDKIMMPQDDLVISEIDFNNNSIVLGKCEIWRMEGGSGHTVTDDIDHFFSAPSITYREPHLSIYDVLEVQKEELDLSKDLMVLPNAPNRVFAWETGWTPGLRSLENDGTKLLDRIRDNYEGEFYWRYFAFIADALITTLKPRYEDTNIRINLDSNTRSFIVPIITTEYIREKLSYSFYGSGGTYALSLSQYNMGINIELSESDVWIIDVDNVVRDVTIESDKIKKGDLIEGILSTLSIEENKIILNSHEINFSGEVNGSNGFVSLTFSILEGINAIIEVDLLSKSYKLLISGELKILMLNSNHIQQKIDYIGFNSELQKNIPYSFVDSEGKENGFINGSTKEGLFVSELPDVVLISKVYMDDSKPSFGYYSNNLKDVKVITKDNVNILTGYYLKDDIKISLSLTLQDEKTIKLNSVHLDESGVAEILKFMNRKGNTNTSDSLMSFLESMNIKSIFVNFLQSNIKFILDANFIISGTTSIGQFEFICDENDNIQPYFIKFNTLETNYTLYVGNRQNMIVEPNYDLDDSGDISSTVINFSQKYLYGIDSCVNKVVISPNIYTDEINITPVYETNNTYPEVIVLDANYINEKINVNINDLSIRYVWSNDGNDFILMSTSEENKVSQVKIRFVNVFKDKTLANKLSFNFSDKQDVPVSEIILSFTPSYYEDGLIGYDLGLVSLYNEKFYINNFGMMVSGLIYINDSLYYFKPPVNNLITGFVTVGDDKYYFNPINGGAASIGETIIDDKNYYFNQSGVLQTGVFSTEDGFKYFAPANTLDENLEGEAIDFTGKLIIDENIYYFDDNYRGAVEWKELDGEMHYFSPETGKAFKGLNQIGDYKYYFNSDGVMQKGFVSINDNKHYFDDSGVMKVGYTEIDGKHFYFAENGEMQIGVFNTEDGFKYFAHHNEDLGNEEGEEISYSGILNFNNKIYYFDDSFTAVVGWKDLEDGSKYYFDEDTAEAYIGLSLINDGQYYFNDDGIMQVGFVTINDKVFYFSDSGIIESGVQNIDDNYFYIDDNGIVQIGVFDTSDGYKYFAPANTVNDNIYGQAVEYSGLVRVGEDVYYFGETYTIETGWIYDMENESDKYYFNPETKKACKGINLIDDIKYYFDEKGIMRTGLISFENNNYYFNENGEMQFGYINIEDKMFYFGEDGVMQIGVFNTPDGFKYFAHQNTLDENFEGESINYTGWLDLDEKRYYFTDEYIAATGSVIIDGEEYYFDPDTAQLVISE

B1: FZD4^CRD-Fc (recombinant human, Sino Biologics) (Fc fusion)
chain: FGDEEERRCDPIRISMCQNLGYNVTKMPNLVGHELQTDAELQLTTFTPLIQYGCSSQLQFFLCSVYVPMCTEKINIPIGPCGGMCLSVKRRCEPVLKEFGFAWPESLNCSKFPPQNDHNHMCMEGPGDEEVPLPHKTPIQPGEE
notes: domain: CRD
Take B1: in assay [1], the binding result is listed as “binds”.

B2: TcdB fragment 1510-1688 (other)
chain: SNNLKDVKVITKDNVNILTGYYLKDDIKISLSLTLQDEKTIKLNSVHLDESGVAEILKFMNRKGNTNTSDSLMSFLESMNIKSIFVNFLQSNIKFILDANFIISGTTSIGQFEFICDENDNIQPYFIKFNTLETNYTLYVGNRQNMIVEPNYDLDDSGDISSTVINFSQKYLYGIDSCV
Consider B2, for which the binding result in assay [2] is on record as “no binding”.

B3: Wnt3A (recombinant human, StemRD) (ligand)
chain: SYPIWWSLAVGPQYSSLGSQPILCASIPGLVPKQLRFCRNYVEIMPSVAEGIKIGIQECQHQFRGRRWNCTTVHDSLAIFGPVLDKATRESAFVHAIASAGVAFAVTRSCAEGTAAICGCSSRHQGSPGKGWKWGGCSEDIEFGGMVSREFADARENRPDARSAMNRHNNEAGRQAIASHMHLKCKCHGLSGSCEVKTCWWSQPDFRAIGDFLKDKYDSASEMVVEKHRESRGWVETLRPRYTYFKVPTERDLVYYEASPNFCEPNPETGSFGTRDRTCNVSSHGIDGCDLLCCGRGHNARAERRREKCRCVFHWCCYVSCQECTRVYDVHTCK
On to B3, for which the binding result in assay [3] is recorded as “binds”.

B4: TcdB fragment 1510-1804 (other)
chain: SNNLKDVKVITKDNVNILTGYYLKDDIKISLSLTLQDEKTIKLNSVHLDESGVAEILKFMNRKGNTNTSDSLMSFLESMNIKSIFVNFLQSNIKFILDANFIISGTTSIGQFEFICDENDNIQPYFIKFNTLETNYTLYVGNRQNMIVEPNYDLDDSGDISSTVINFSQKYLYGIDSCVNKVVISPNIYTDEINITPVYETNNTYPEVIVLDANYINEKINVNINDLSIRYVWSNDGNDFILMSTSEENKVSQVKIRFVNVFKDKTLANKLSFNFSDKQDVPVSEIILSFTPSYY
As to B4, the binding result in assay [2] is on record as “no binding”.

B5: TcdB fragment 1688-1835 (other)
chain: VNKVVISPNIYTDEINITPVYETNNTYPEVIVLDANYINEKINVNINDLSIRYVWSNDGNDFILMSTSEENKVSQVKIRFVNVFKDKTLANKLSFNFSDKQDVPVSEIILSFTPSYYEDGLIGYDLGLVSLYNEKFYINNFGMMVSGL
As for B5, in [2], the binding result is given as “no binding”.

Consider B6, for which, in assay [4], the kon came to 114000 M⁻¹ s⁻¹. Also, the Kd in [5] was ~13 nM; in assay [7], 13 nM. Further, the koff in assay [6] was 0.0015 s⁻¹.

B7: FZD8^CRD-Fc (recombinant human, R&D Systems) (Fc fusion)
chain: ASAKELACQEITVPLCKGIGYNYTYMPNQFNHDTQDEAGLEVHQFWPLVEIQCSPDLKFFLCSMYTPICLEDYKKPLPPCRSVCERAKAGCAPLMRQYGFAWPDRMRCDRLPEQGNPDTLCMDYNRTDLTT
notes: domain: CRD
On to B7, for which the binding result in assay [1] is reported as “binds”.

B8: TcdB fragment 1430-1804 (other)
chain: SGELKILMLNSNHIQQKIDYIGFNSELQKNIPYSFVDSEGKENGFINGSTKEGLFVSELPDVVLISKVYMDDSKPSFGYYSNNLKDVKVITKDNVNILTGYYLKDDIKISLSLTLQDEKTIKLNSVHLDESGVAEILKFMNRKGNTNTSDSLMSFLESMNIKSIFVNFLQSNIKFILDANFIISGTTSIGQFEFICDENDNIQPYFIKFNTLETNYTLYVGNRQNMIVEPNYDLDDSGDISSTVINFSQKYLYGIDSCVNKVVISPNIYTDEINITPVYETNNTYPEVIVLDANYINEKINVNINDLSIRYVWSNDGNDFILMSTSEENKVSQVKIRFVNVFKDKTLANKLSFNFSDKQDVPVSEIILSFTPSYY
Take B8: the binding result in assay [2] is “no binding”.

B9: TcdB fragment 1071-1512 (other)
chain: LTTATTAIITSSLGIASGFSILLVPLAGISAGIPSLVNNELVLRDKATKVVDYFKHVSLVETEGVFTLLDDKIMMPQDDLVISEIDFNNNSIVLGKCEIWRMEGGSGHTVTDDIDHFFSAPSITYREPHLSIYDVLEVQKEELDLSKDLMVLPNAPNRVFAWETGWTPGLRSLENDGTKLLDRIRDNYEGEFYWRYFAFIADALITTLKPRYEDTNIRINLDSNTRSFIVPIITTEYIREKLSYSFYGSGGTYALSLSQYNMGINIELSESDVWIIDVDNVVRDVTIESDKIKKGDLIEGILSTLSIEENKIILNSHEINFSGEVNGSNGFVSLTFSILEGINAIIEVDLLSKSYKLLISGELKILMLNSNHIQQKIDYIGFNSELQKNIPYSFVDSEGKENGFINGSTKEGLFVSELPDVVLISKVYMDDSKPSFGYYSNN
Take B9: the binding result in [2] is “no binding”.

B10: TcdB fragment 1454-1804 (other)
chain: SELQKNIPYSFVDSEGKENGFINGSTKEGLFVSELPDVVLISKVYMDDSKPSFGYYSNNLKDVKVITKDNVNILTGYYLKDDIKISLSLTLQDEKTIKLNSVHLDESGVAEILKFMNRKGNTNTSDSLMSFLESMNIKSIFVNFLQSNIKFILDANFIISGTTSIGQFEFICDENDNIQPYFIKFNTLETNYTLYVGNRQNMIVEPNYDLDDSGDISSTVINFSQKYLYGIDSCVNKVVISPNIYTDEINITPVYETNNTYPEVIVLDANYINEKINVNINDLSIRYVWSNDGNDFILMSTSEENKVSQVKIRFVNVFKDKTLANKLSFNFSDKQDVPVSEIILSFTPSYY
As to B10, in assay [2], the binding result is on record as “no binding”.

B11: FZD5^CRD-Fc (recombinant human, Sino Biologics) (Fc fusion, UniProt Q13467 27-167, looked up)
chain: ASKAPVCQEITVPMCRGIGYNLTHMPNQFNHDTQDEAGLEVHQFWPLVEIQCSPDLRFFLCSMYTPICLPDYHKPLPPCRSVCERAKAGCSPLMRQYGFAWPERMSCDRLPVLGRDAEVLCMDYNRSEATTAPPRPFPAKP
notes: domain: CRD; also called CRD5; CRD5-Fc; not shown: Fc tag of the bought protein
Regarding B11, the binding result in [8] and in [9] was “binds” in each case.
